The data set in a line: soluble on expression in E. coli; label from the status in PepcDB or PDB records.
“MPMNTSKQSNTVKQLITSLDNFEPSRLTIKDFQEGKGVGPKMAFLRYNHPSLGEDTSLMLQTPWITLTSGGIPRYNEQYHKNDKDRAYLRLPLEEGTDFFNKITALDEQFSSDEFKKEKFGKLYKKYSMYPCVKITEQEEGDTRDPLPPSLKLRFSLVWNEEDKDACEINTQVFTSKMEDGKRTRTPVPVSSLKDMESLVRLGAKLRLIVRPVSAWMNPKKEYGIKWKIQKMEVEPSTAGNALMKEFYETDAFIDSDDEEDVELPPSATGKKTSTKTTKEDDEDEDDDDDDDDDDVGEKSEDSDEASDEESDEESDEDSEEDSPDIPVRKSKGKGKSKGLDL”: the “soluble on expression in E. coli” value is given as “not soluble”. To “MPMPSEKTLVIIPTYNELENLPLITGRVRKANPNVDILIVDDNSPDGTGEAADALAASDSHIKVLHREGKGGLCGAYVAGFQWGLERDYTVLCEMDADGSHAPEQLHLLLAQVDNGADLVIGSRYVPGGKVVNWPKNRWVLSKGGNIYISLALGAGLSDMTAGYRAFRREVLETVDLNELSNAGYIFQVDMAWRVIQLGFDVREVPITFTEREIGESKLDGSFVKDSLLEVTKWGIHHRKEQITNLYTESSRLIRHEISSFRKKHLI” belongs “not soluble”; to “MPNDLKKELRELKETLEYLKKSFEVISQLAQAYIRLLNVYAEYGDLGIDVVIPEIKHDPIARDIVKILFDLRRANVSQIARELKGRRGKASRNTVRKKLKELEKLGVVKEVPGERGSVYTLSREVVKKWLDLIGIPINLLLEHHHHHH”, “soluble”. To “MPNEQKRFVTGPAGRLETVVTLPEGAPRGLAIVAHPHPLYQGSMDNKIVYILSRAFIEQQYITVKFNFRGVGASEGSYAEGKGEIEDVMAVTQAMREQYDTGPEPLPLTLAGFSFGGAVQAHVAQQLKPSRLVLVAPSVERLQAPPVVDHARHILVIQGDQDTIVPLQSILNWAAPQTLPVTVIPGAEHFFHGKLHVLKNVILQSCSISQAATSLYP” belongs “not soluble”; to “MPPKLRNFDKSMEKYTDVVLVVKQERFYVSRAILSEHCTYFQSLFCGDSNYQEHIISDVEPQDFQKFLEVVHGEPAIFEATVQKILPLAQKFGSKTVLQKCERFLITISTVRLSTKWNLAKQYGLDELQAHCKLEFKTAQIVRKNPQPEPKSLAYSDKFIFDHSFEKVDGLAEGDMRRSQPITHLDFTWTIYITRKNQHLRVSLCCGKAHLTSDWTVRADFKMTLTAKGSPDLVSDTKGFFHLDSEKNFYWELGQEVEWDEIRDKCLADGKLEVETRVRIVKIRELPVEEFKPPRIVTVNAVKSYEGVLSDYIRVTPLTQQAKTSAPAETPDLQTPPRQQASAKPQASPAKSAGAPQLPQKVPLFPSGGAPSSPSAPEAPSEPPPPKIYPTLGANAPPAPPVQGKKFILKNVFGNVEAMKCHTAMACQKAVAYDFEWNLIISQKNNRLHVSLCCSKSNVTSEFRILADFELIIAGKNGGRPLKSKTNGCFNIEKTKNSSQELGQDVEWSTIVYDYMVDGRLTVEAHVNITRVTCLDAPKFKKLRNFDATGNSWDVMLIVAGQRFFVLKEILISNSARFKNIISKINFTAAPSTEIKLPDSSADHFQNFLEACYGDPSINDDTVHGILKIAQSYEAAGIVKRCEEYVIKYSKKTLEQKEKLAKHHNLKTLKAHCDYWKSRRKCC”, “not soluble”; to “MPPSLRKAVAAAIGGGAIAIASVLITGPSGNDGLEGVSYIPYKDIVGVWTVCHGHTGKDIMLGKTYTKAECKALLNKDLATVARQINPYIKVDIPETMRGALYSFVYNVGAGNFRTSTLLRKINQGDIKGACDQLRRWTYAGGKQWKGLMTRREIEREICLWGQQ”, “soluble”. To “MPPTGIFFNVNGKDIKEENVDPELTLAYYLRNKLGLRGTKLGCEEGVCGSCTVVLGTWDDSLNKAVYSAVNACLVPLFHVHKTFVITVEGVGSRDKIHPIQDRMARGHAVQCGFCSPGFVMSAYALLRNHPNPTIEQINAAIRANLCRCTGYRPILEALYSFSSSGGGCCGGKKAGAGCCKDLSSEDEAYEKLTSFNDFPEYDPSQEIIFPPSLRIFVDSENPVTLKGDRIELLLPKSIEQFKEFKKDRTVISSGLITRFIATRNPKEFSQKWITTKYVKEFNEVIENPETVVIGAAVNIQKMSDILSRSLSQNIGKEVDAFIKKFSSPQIANFATWTGGIVSGAKSSISVSDLLLLFNVLNAKLTLLTDSGDLTQVNIEEFVEKKLFATNTIVNTVFSSSITGQLFCLKLGETSEQDSTSFNFAALVGNNISRIFVGLGGPPKRLTSLEEHIFALKNLDVPDLCKTSGMGENKNIKIALTRLSKFMKNVEKTAETVDGLNYLQYFKPTERKSVGRPLANYFNERAITGEALYVNDIQTYNPVHLGFVLSTVPHAEILSIDATEALKLEGVVGFFGASDVPGNNSPGLQISNMNLPDDATIFADKKVESVGQVVGVIAANDVLLARRAAKLVKLEYKELPALVELKDAIVAKSLLGKVRHFGKSEYLVNESLVHSYKVLEGESSLGSQEHFYLETQSSLNYRIVHCSTQGTSFTQLMVAETMKIPAHKIIVKTKRMGGAFGGKLNNASWIACICSVVAKKLNRPTYGVGINSDGKVQGIHHQAWLNGGWSKDHTEGVTMVMGQFVDDVYNMGTVRYDGYPVKTNTNSNTAFRGYGNPQAKLVSEGVMRRIAREVGKSTEEVKKLNFAFEGEKRYLSGNIYSDAHIECWEYCTRWSDFEKRKETIENFNKTSKIVKRGIAMSSVRLALSHPGPPGHGVASLMINLDGSIQLSIGGTEMGQGLNQKMLQVCSEALKRPIDTITIVDCSTDKITNAPETGASHNADTNGLAVLACCERIMSRLQPIIDKNDGDWEKSIRDAYGAYVPLQCTEYGSVDREKLSIGEFEYPYNTTGACAVEMEVDTMTGYNRLLRVDIVMDVGESLNPAIDIGQIEGAFMQGYGLVTCEKITFNKETGQLNQNSAGQYKIPKSSDVPKDFRVKLLGINKANGAKVYSSKGIGEPPLMMSCGAVHSCIMNCIDDWRKENGIDKFVDTISPLSADKIQELCSCNN” belongs “not soluble”; to “MPRLVVNSIYASGAQYQGSSSKLYVNVSNLGTENAYNVLIQVYVNGKVYGSTTVSEIKAGASDNVSINWVPPTSGKVSVYATASVNSEPRSFVTAGALTQTVSVNPLEHHHHHH”, “not soluble”. Consider “MPSKLALIQELPDRIQTAVEAAMGMSYQDAPNNVRRDLDNLHACLNKAKLTVSRMVTSLLEKPSVVAYLEGKA”, for which the “soluble on expression in E. coli” value was “soluble”. To “MPSKLFSRRSFVTTACAGLAALALPLPAVALTEARAASLVNEVVTEINRVIASGKSENAMIRDFEKLFVRYGDVPIMARYALGPDARTASPAQLKSFTQAFQGYISRKYGKRFREFIGGEVTVKTARKIKAGYEVKTSVKLQGQAPFDVTFLVSDKSGKDKFFNMFIEGVNLLLTERTEIGSMLDRRKGDLNALIRDLASAGLEHHHHHH” belongs “soluble”; to “MPSSPAERYAQALASGQFMPDEAQAQAVQELERVWQELLSRYKASKKAFRRFRRQTSPKGVYMWGGVGRGKTWLMDQFYDSIPFRRKTRMHFHHFMQHVHRELNKLSGQRNPLDLVADQIYKDAVIICFDEFFVSNVTDAMILSDLFQKLFNRGVTLVATSNIAPDGLYKNGIHRDRFLPTIELVQKNCTILNVDAGVDYRLRVLKQAQLFKHPLTDDAKIWMSQRFSAITRSQIVSQQPITINNRVVETLGHTEDVLWCEFSELCLKPRSPADFIEIANIYNTVLVSNVPHLTDYLSEGTRRFIYLVDEFYDRGVKLLLTSQDSIIEIYEGEKLAFEIERTRSRLLEMQSDEYLHSLEHHHHHH”, “soluble”; to “MPSSTSSSLENLSVSVCAAGDSAAYQRNSVFGDDVVIVAAYRSPLCKAKRGGLKDTYPDDILAPVLKALIEKTNINPAEVGDIVVGSVLGAGSQRASECRMAAFYAGFPETVPVRTVNRQCSSGLQAVADVAAAIKAGFYDIGIGAGLESMTANPMAWEGSVNPKVKTMAQAQDCLLPMGITSENVAQKFSITRQEQDQAAVGSHRKTAAATAAGRFKDEIIPIKTKIVDPKTGDEKPVTISVDDGIRPGTSLADLAKLKPVFRKDGSTTAGTSSQVSDGAGAVLLMKRSIALQKGLPILGVFRTFAAVGVPPSIMGIGPAVAIPAAVKAAGLQIDDIDLFEINEAFASQFVYCQKKLEIDPQKINVNGGAMAIGHPLGATGARCVATLLHEMKRRGRDCRFGVVSMCIGTGMGAAAVFERGDACDELCNAKAKHHHHHH”, “soluble”. Consider “MPTLKYLPHYPPALVQQAQALFDSGELGALLRSKYPDGHDVQTDKALYQFVSALKQRHLKNAPLPAKVLYDNQQHPLKGTLGTNTTISRVQGGRLKSKSEIRIASLFRELPLPFLQMIVVHELAHLKVRDHDKAFYQLCCHMQPDYHQLEFDLRLWLNWREQRRNLEHHHHHH”, for which the “soluble on expression in E. coli” value is “soluble”.

Turning to “MPTPARKTQKGGRKRRVNGVEEEILYIIGFFQDDSSIGLSTFFTKFCILYQDSKSNFRVLNLEMFSPENLNARKKMSQEKDTPSH”, the “soluble on expression in E. coli” value is recorded as “not soluble”. Consider “MPTPLTHWSRWMQTASRFVDEYPNFSVLPPPPLRAPPPHSKISDRRSV”, for which the “soluble on expression in E. coli” value is recorded as “not soluble”.

For “MPTPPVSVLVAQMGEGPAPLYARVKQMIIQQIDNGSWPPHHRVPSESELVNELGFSRMTINRALRELTAEGLLVRMQGVGTFVAEPKGRSALFEVNNIADEIAARGHQHSCQVITLAEEAAGSERALALDMREGQRVFHSLIVHFENGVPVQIEDRYVNAAIAPDYLKQDFTRQTPYAYLSQVAPLTEGEHVVEAILAEPEECTLLQIDRGEPCLLIRRRTWSGRQPVTAARLIHPGSRHRLEGRFSK”, the “soluble on expression in E. coli” value is recorded as “not soluble”. As for “MPTVSLGRFQKEDGINVPDWIDVVRRPSGGRALLHHREITYCLAVPKKINFGKLSVLEFHRLVHSLIRDALVEAGLHAELSSKRRGNTALCFDAPSRYEIVINGVKVVGSAQFRTAESIVEHGSIVLKQDIDL”, the entry is “soluble”. As for “MPVLTSGQQERKSKQRKIRNSEYYDMEGTFDRLYAESKKDKTFNHLMEIIESEENIKLAYRTIKKNTGSDTSGVDKRTIADLAKLSEEEYVRLIRKQFSNYHPGPVRRVEIPKPNGKTRPLGIPTIVDRIVQQCILQVMEPICEAKFSENSNGFRPNRSAETAIAQCMRLIQVQHLYHVVDLDIKGFFDNISHTKLIRQIWALGIRDKKLLCIIKEMLKAPVVLPNGEKTYPARGTPQGGILSPLLANIVLNELDWWIASQWEEMPTKTKFKTRSNAQGTEIKSHAYRALRRSRLKEMHAVRYADDFKIFCATHEDAVRAYKATELWLKDRLGLEISPDKSKVVNLKRQYSDFLGFKLKVRKKGKKYVVRSHMSDKAYKKAHEKVSEEVKKLAYSSDDNAQFMQLQKYNSVVAGLHEYYCISTEVSHDFSRLAFSINKQLRNRLKGDLSKKGQLRNGFIKEKYGASRQMRFLHGRPVVPLGYVQSKNAQHKRKSINKYTVKGREQIHKNLAIDTATMLWLMRNPVKGRTIEYADNRISLYAAQYGKCAVTGIPMNSHDIHCHHKVPVSNGGSDEYANLILVSKAVHILIHASSEPTIEKYLKSLNLDNKQIEKLNKLRSMAEMPPIIL”, the entry is “not soluble”; as for “MQADFNRPVLAVDTGTSYLSLALRADGETCLFHQEVGSRQSALILPEIRTLFHDAGITAADLGAIVYAKGPGAFTGLRIGIGVAQGLATPFDTPLIGVPSLDAAASLPPPQSCILAAADARMGEVFYAWFDTLNRRRLSDYQVGRAADIRLPEGCAFSDGIGNAFALENRPPFSGKPDMPTAADFLNLAAEGGFPAVAAAHAELLYVRNKIALTAKEQAERRARLLEHHHHHH”, “not soluble”; as for “MQALGLIETRGLLPAIECADVMLKTAQVELVGRDFVGGGLVTISVTGDVGAVKAAVEAGAAAVEKISPLLLVSQHVIPRPHQEIEGMIGPSPAAKQAPPVPQPEKVKALPGFDQTTNKQTIDDFVQEFGLEPCVDALKTLPVLKLRNLAREYKGLAIAGRAISKANKEDLIQQLKEYYNQKHE”, “not soluble”.

The record behind these values is the DeepSol protein solubility set.
